Where a chain is given by its changes, count along the chain named.

Assay [1] concerns the target T1, human ADAMTS5 (human, UniProt Q9UNA0 262-622, limits assumed).
T1 construct: Octet and ELISA used 'recombinant human ADAMTS5'; also called recombinant human ADAMTS5; ADAMTS5 (R&D Systems 2198-AD)
T1 sequence: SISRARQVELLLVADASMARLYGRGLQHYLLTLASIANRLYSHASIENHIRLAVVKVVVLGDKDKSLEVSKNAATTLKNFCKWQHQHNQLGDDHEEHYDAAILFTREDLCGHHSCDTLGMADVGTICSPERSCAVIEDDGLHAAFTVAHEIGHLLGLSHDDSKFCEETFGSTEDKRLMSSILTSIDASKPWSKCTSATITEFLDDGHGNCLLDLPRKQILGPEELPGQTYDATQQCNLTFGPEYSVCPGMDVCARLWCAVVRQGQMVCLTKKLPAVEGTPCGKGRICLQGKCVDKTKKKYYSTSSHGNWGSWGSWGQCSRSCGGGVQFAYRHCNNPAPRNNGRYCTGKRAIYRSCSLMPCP
Briefly: Biacore, purified mAb captured on anti-human IgG, ADAMTS5 (R&D 2198-AD) at 64 nM, 1:1 fit. Here is the method:
(§1) Anti-human IgG (Biacore™, BR-1008-39) was immobilized on a CM5 chip by primary amine coupling. This surface was then used to capture the humanized antibodies, ADAMTS5 (R&D Systems 2198-AD) was then passed over the captured antibody at a single concentration of 64 nM, regeneration was carried out using 100 mM phosphoric acid followed by 3M MgCl₂. The binding curves were double referenced with buffer injection (i.e. 0 nM) and the data was fitted to the T100 analysis software using the 1:1 model. The run was carried out at 25° C., using HBS-EP as the running buffer. All antibodies were captured from tissue culture supernatants unless specified.
In general terms: SPR reads the build-up and loss of mass on a sensor chip optically.

Assay [2] has as its target T1, human ADAMTS5. Briefly: Octet QK, purified mAb.
For assay [3], the target named is T1, human ADAMTS5. Briefly: Octet QK, antigen down, incl avidity. (In general: Biolayer interferometry detects binding as a change in optical thickness at a sensor tip.)
In assay [4] the target is T1, human ADAMTS5. As to the kind of experiment: Biacore, mAb from culture supernatant captured on anti-human IgG, ADAMTS5 (R&D 2198-AD) at 64 nM, 1:1 fit. Here is the method:
as §1

For assay [5], the target named is T1, human ADAMTS5. As to the kind of experiment: Biacore, mAb down, no avidity.
Assay [6] has as its target Human MMP3 (human, UniProt P08254 18-477, limits assumed). Briefly: celTRF and Octet QK cross-reactivity.
The target in assay [7] is Human MMP13 (human, UniProt P45452 20-471, limits assumed). As to the kind of experiment: celTRF and Octet QK cross-reactivity.
In assay [8] the target is T2, Human ADAMTS4 (human, UniProt O75173 213-685, limits assumed).
T2 construct: also called aggrecanase-1
T2 sequence: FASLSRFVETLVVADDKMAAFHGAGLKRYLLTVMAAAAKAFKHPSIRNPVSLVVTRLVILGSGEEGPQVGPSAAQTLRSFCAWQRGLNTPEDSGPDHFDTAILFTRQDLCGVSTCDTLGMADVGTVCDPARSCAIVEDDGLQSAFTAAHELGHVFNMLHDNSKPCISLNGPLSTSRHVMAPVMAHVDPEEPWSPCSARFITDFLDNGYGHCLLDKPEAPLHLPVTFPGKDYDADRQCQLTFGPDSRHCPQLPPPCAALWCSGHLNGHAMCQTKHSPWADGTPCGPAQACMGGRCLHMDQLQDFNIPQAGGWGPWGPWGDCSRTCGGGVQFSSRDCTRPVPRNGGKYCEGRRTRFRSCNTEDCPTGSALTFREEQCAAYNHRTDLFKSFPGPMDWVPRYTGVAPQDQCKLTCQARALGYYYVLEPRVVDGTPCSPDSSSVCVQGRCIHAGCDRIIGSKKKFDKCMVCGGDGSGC
Briefly: celTRF and Octet QK cross-reactivity.

The target of assay [9] is T3, Human ADAMTS1 (human, UniProt Q9UHI8 253-967, limits assumed).
T3 sequence (looked up): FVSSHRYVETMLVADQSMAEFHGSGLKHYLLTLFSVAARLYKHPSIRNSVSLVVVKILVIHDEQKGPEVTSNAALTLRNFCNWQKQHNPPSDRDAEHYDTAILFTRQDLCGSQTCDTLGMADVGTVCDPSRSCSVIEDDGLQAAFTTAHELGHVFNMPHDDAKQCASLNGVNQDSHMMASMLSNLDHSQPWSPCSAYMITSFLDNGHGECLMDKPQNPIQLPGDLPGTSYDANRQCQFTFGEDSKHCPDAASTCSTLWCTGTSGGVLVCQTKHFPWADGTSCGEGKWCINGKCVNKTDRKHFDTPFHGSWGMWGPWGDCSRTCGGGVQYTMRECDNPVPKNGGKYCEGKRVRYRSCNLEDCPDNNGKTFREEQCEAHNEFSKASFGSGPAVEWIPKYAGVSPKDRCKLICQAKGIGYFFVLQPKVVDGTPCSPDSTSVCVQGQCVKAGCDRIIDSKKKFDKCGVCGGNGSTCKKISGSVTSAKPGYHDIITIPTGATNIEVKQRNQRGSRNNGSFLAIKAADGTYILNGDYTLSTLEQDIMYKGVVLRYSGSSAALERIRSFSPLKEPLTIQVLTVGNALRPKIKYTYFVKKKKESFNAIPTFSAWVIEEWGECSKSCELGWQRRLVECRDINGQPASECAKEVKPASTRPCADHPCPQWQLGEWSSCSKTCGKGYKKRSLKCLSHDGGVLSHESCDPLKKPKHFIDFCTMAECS
Briefly: celTRF and Octet QK cross-reactivity.

In assay [10] the target is Human MMP9 (human, UniProt P14780 20-707, limits assumed). Briefly: celTRF and Octet QK cross-reactivity.
Assay [11] has as its target T4, Human MMP1 (human, UniProt P03956 20-469, limits assumed).
T4 sequence (looked up): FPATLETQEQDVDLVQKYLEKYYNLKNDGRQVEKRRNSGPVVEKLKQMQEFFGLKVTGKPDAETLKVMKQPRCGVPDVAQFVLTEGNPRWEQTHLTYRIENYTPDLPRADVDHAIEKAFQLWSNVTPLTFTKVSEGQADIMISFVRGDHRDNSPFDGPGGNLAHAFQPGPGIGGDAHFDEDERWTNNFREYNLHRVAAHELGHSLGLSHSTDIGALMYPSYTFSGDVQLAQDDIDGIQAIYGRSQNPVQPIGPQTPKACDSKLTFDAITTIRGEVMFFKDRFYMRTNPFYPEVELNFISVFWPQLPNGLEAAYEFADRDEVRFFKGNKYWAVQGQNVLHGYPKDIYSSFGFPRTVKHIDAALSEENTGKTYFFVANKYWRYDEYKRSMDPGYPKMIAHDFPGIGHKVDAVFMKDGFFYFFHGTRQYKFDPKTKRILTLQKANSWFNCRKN
Briefly: celTRF and Octet QK cross-reactivity.

Assay [12] addresses T5, Human ADAMTS13 (human, UniProt Q76LX8 75-685, limits assumed).
T5 sequence (looked up): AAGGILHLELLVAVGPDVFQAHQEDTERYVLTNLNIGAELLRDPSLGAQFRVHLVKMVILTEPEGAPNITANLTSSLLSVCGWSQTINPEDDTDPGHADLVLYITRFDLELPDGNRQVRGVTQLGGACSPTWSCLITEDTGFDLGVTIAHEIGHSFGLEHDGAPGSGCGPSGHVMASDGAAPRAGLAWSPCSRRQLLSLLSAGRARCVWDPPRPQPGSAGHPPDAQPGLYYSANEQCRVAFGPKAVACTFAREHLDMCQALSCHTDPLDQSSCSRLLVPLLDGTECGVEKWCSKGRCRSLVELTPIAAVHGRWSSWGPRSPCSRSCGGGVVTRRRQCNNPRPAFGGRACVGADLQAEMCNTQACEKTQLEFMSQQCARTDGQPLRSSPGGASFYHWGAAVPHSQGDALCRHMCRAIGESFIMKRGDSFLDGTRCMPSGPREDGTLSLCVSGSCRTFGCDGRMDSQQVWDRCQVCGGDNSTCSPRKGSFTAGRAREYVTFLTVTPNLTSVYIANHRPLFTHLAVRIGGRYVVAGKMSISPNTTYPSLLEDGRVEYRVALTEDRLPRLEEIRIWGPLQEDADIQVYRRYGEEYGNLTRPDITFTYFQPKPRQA
As to the kind of experiment: celTRF and Octet QK cross-reactivity.

In assay [13] the target is T1, human ADAMTS5. Briefly: cell-based or functional assay.
For assay [14], the target named is T1, human ADAMTS5. Briefly: Octet QK, purified murine mAb.

Chain of Human MMP9 (P14780 20-707 limits assumed): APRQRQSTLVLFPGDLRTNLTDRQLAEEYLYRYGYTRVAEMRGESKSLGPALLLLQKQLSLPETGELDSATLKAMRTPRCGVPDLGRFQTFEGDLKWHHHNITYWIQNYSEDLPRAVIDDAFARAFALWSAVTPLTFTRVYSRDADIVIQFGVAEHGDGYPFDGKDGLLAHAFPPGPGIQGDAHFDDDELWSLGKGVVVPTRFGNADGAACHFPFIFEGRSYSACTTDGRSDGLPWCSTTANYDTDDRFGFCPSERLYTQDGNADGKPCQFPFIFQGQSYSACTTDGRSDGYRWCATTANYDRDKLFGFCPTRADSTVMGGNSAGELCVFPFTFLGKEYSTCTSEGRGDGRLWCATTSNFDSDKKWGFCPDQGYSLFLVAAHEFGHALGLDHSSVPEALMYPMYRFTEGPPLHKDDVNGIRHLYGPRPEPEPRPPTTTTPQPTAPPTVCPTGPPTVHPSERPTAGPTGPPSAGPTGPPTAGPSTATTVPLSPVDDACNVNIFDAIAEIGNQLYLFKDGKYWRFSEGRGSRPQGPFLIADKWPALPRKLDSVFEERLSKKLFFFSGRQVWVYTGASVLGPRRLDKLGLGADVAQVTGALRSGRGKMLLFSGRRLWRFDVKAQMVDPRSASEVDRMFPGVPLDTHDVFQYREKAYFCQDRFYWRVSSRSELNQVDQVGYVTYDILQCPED
Chain of Human MMP3 (P08254 18-477 limits assumed): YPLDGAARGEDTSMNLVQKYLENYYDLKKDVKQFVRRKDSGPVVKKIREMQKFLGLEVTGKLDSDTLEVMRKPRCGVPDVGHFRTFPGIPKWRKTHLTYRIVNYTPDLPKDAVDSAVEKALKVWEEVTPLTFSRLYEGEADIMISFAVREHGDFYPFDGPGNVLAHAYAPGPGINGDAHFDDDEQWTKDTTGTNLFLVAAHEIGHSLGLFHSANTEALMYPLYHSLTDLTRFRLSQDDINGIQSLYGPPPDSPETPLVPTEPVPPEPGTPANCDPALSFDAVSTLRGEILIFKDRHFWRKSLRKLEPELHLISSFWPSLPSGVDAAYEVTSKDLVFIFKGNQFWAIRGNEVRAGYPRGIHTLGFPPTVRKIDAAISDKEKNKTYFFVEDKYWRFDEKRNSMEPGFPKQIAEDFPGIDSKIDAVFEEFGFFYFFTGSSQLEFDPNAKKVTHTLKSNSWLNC

B1: BPC1622 (antibody, human IgG1, kappa, V domains shown)
VH: EVKLEESGGGLVQPGGSMKLSCAASGFTSSDAWMDWVRQSPEKGLEWVAEIRNKANNHARHYAESVKGRFTISRDDSKSSVYLQMNSLRAEDSGIYYCTRTYYYGSSYGYCDVWGTGTLVTVSS
VL: DIQMTQSPASLSASVGETVTITCRTSENIYSYLAWYQQKQGKSPQLLVYNAKTLAEGVPSRFSGSGSGTQFSLKINSLQPEDFGSYSCQHHYGTPWTFGGGTKLEIKR
notes: Chimeric: murine variable domains on human gamma 1 and kappa constant regions; also called 7B4 Chimera; Chimeric 7B4.1E11
The term koff denotes the rate constant with which the complex falls apart. Low readings indicate slow dissociation, high ones fast dissociation. One may read the kon as the rate constant with which the complex forms. Consider B1, for which the Kd in assay [1] was found to be 1.21 nM; in assay [2], 0.345 nM; in assay [3], 0.26 nM; in [4] it was 1.12 nM; in assay [5] it was 0.473 nM. Besides, the koff is 0.00106 s⁻¹ in assay [1] and 0.0013 s⁻¹ in assay [4]. In addition, the results for the kon in [1] and in assay [4] were 872000 M⁻¹ s⁻¹ and 1.16e+06 M⁻¹ s⁻¹, respectively.

B2: 2D3.1D4 (antibody, V domains shown)
VH: EVKLEESGGGLVQPGGSMKLSCAASGITFSDAWMDWVRQSPEKGLEWVADIRNTANNHATFYAESVKGRFTISRDDSKSTVYLQMNTLRPEDTGIYYCTSPFAYWGQGTLVTVSA
VL: DIVMTQSQKFMSTTVGDRVSITCKASQNVGTAVVWFQQKPGQSPKLLIYSASNRYTRVPDRFTGSGSGTDFTLTISNVQSEDLADYFCQQYVNYPFTFGSGTKLEIKR
notes: Murine monoclonal antibody from a hybridoma
With B2, the binding result in [6], in [7], in [8], in assay [9], in [10] and in assay [11] was “no binding” in each case. Moreover, in [12], the binding result is “no binding”. Besides, the “Aggrecan Substrate Cleavage Neutralization IC50” value in assay [13] is 0.031 nM. The same molecule showed a Kd in assay [14] of 0.0862 nM.

B3: 5F10.1H6 (antibody, V domains shown)
VH: B2 VH with I27F, D50E, N53H, T54K, N57D, T60I, A63D, T80I, T87S
VL: DIVMTQSQRFMSVTVGDRVSITCKASQSVGTTIVWYQQKPGQSPKLLIYSASTRYTGVPDRFTGGGSGTDFILTINNVQSEDLADYFCQQYSSYPFTFGSGTKLEIKR
notes: as for B2
B3: the binding result in assay [6], in assay [7], in assay [8], in [9], in [10] and in assay [11] was “no binding” each time. In addition, in [12], the binding result is listed as “no binding”. Besides, the “Aggrecan Substrate Cleavage Neutralization IC50” value in assay [13] turned out to be 0.05 nM. For the same molecule, the Kd in assay [14] is 0.126 nM.

B4: 3A12.1D7 (antibody, V domains shown)
VH: EVKFEESGGGLVQPGGSMKLSCAASGFIFSDAWMDWVRQSPEKGLEWVAEIRHKANDYAIFYDESVKGRFTISRDDSKSIVYLQMNNLRPEDTGIYYCTSPFAYWGQGTLVTVSA
VL: B3 VL with R9K, T53N, Y55H, G65S, N76S
notes: as for B2
B4: the binding result in [6], in assay [7], in assay [8], in assay [9], in [10] and in [11] was “no binding” throughout. For the same molecule, the binding result in assay [12] is listed as “no binding”. The “Aggrecan Substrate Cleavage Neutralization IC50” value in assay [13] worked out at 0.769 nM. In addition, the Kd in assay [14] came to 0.0824 nM.

B5: BPC1623 (antibody, human IgG1, kappa, V domains shown)
VH: B4 VH with F4L, A23T, I28T, Y58H, S79N, N87S, A115S
VL: B3 VL with R9K, T53N, Y55H, G65S, S92T
notes: Chimeric: murine variable domains on human gamma 1 and kappa constant regions; also called 12F4 Chimera; Chimeric 12F4.1H7
As for B5, the Kd in assay [1] came to 0.0727 nM; in assay [2], 0.0799 nM; in assay [3] it was 0.0431 nM; in assay [4], 0.0774 nM; in assay [5] it was 0.051 nM. Also, the figures for the koff in assay [1] and in [4] were 4.7e-05 s⁻¹ and 4.82e-05 s⁻¹, respectively. The kon is 646000 M⁻¹ s⁻¹ in [1] and 623000 M⁻¹ s⁻¹ in assay [4].

(Values after patent US20120095193A1 (published 2012).)
